The values that follow come from the supplement of paper PMC7125110.

± gives the standard error. For part of these data: Fewer inactive variants are shown than the library holds.

Sequences and labels used below:
B1: glmS ribozyme (parent)
chain: AUAAAAGCGCCAGAACUACAGAAAUGUAGUUGACGAGGAGGAGGUUUAUCGAAUUUUCGGCGGAUGCCUCCAAA

What all share (settings): with glucosamine-6-phosphate
Series [1] covers variants of B1. Kind of series: kcat; higher = faster cleavage; RNA array. An outline of the steps: (§1)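 Tiles of sequenced MiSeq chips were imaged over ~14 h at 37 °C. On them, barcoded ribozyme variants had been transcribed in situ by E. coli RNA polymerase and were tracked via a hybridised Cy3 probe while glucosamine-6-phosphate (40 μM to 10 mM) in HEPES/KCl/Mg(OAc)2 buffer flowed in. Per-tile medians, normalised to baseline and to non-cleaving reference variants, were fit to one- or two-exponential decays for kobs, and weighted Michaelis–Menten fits gave kcat and KM.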

The variants in series [2] derive from B1. The series is described as follows: KM; higher = weaker cofactor use; RNA array. An outline of the steps: as §1
The variants in series [3] derive from B1. Kind of series: self-cleavage kobs at 160 uM GlcN6P; higher = faster cleavage; RNA array. The procedure, abridged: as §1
Variants of B1 are the subject of series [4]. The series is described as follows: self-cleavage kobs at 640 uM GlcN6P; higher = faster cleavage; RNA array. An outline of the steps:
as §1

Variants of B1 are the subject of series [5]. Kind of series: self-cleavage kobs at 2500 uM GlcN6P; higher = faster cleavage; RNA array. An outline of the steps:
as §1

Variants of B1 are the subject of series [6]. The series is described as follows: self-cleavage kobs at 10000 uM GlcN6P; higher = faster cleavage; RNA array. The procedure, abridged:
as §1

Variants of B1 are the subject of series [7]. The series is described as follows: self-cleavage kobs at 40 uM GlcN6P; higher = faster cleavage; RNA array. An outline of the steps:
as §1

Regarding A6C A53C, the kcat (commonly the number of substrate molecules converted per active site and unit of time at saturation) in series [1] came to 2.09e-05 ± 4.9e-07 s⁻¹. Also, in series [2], the Michaelis-Menten constant (KM) (commonly the substrate concentration at which the rate is half of its maximum) amounted to 1550 ± 150 µM. In addition, the “self-cleavage kobs at 160 uM GlcN6P” value in series [3] was less than 1e-05 s⁻¹. For the same variant, in series [4], the “self-cleavage kobs at 640 uM GlcN6P” value is less than 1e-05 s⁻¹.
As for U30C U45A, in series [1], the turnover number (kcat) is 0.000449 ± 4.9e-05 s⁻¹. Besides, the KM in series [2] was 1150 ± 280 µM. The “self-cleavage kobs at 160 uM GlcN6P” value in series [3] worked out at 5.04e-05 ± 1.7e-05 s⁻¹. The “self-cleavage kobs at 640 uM GlcN6P” value in series [4] was found to be 0.000176 ± 3.8e-05 s⁻¹. The “self-cleavage kobs at 2500 uM GlcN6P” value in series [5] came to 0.000235 ± 8.7e-05 s⁻¹. Moreover, the “self-cleavage kobs at 10000 uM GlcN6P” value in series [6] was 0.000418 ± 6e-05 s⁻¹.
For U30C U45C, the kcat in series [1] was found to be 3.55e-05 ± 1.6e-05 s⁻¹. For the same variant, in series [7], the “self-cleavage kobs at 40 uM GlcN6P” value was less than 1e-05 s⁻¹. The “self-cleavage kobs at 2500 uM GlcN6P” value in series [5] stood at 4.35e-05 ± 2.1e-05 s⁻¹.
Regarding C11A A12C, the turnover number (kcat) in series [1] is 0.00026 ± 5.5e-05 s⁻¹. The KM in series [2] stood at 900 ± 380 µM. For the same variant, in series [3], the “self-cleavage kobs at 160 uM GlcN6P” value came out at 4.82e-05 ± 1.5e-05 s⁻¹. Besides, in series [4], the “self-cleavage kobs at 640 uM GlcN6P” value worked out at 0.000103 ± 1.8e-05 s⁻¹. The “self-cleavage kobs at 2500 uM GlcN6P” value in series [5] amounted to 0.000182 ± 3.2e-05 s⁻¹. Further, in series [6], the “self-cleavage kobs at 10000 uM GlcN6P” value was 0.000406 ± 0.00015 s⁻¹.
As for C8G U57A C70A, the catalytic constant (kcat) in series [1] turned out to be 5.04e-05 ± 1.1e-05 s⁻¹.
Regarding U49G U54A, the turnover number (kcat) in series [1] was found to be 0.00122 ± 0.00034 s⁻¹. Moreover, the KM in series [2] turned out to be 3170 ± 1400 µM. In addition, the “self-cleavage kobs at 160 uM GlcN6P” value in series [3] stood at 9.47e-05 ± 2.3e-05 s⁻¹. In series [4], the “self-cleavage kobs at 640 uM GlcN6P” value was 0.000176 ± 3.6e-05 s⁻¹. Moreover, the “self-cleavage kobs at 10000 uM GlcN6P” value in series [6] is 0.000941 ± 0.00014 s⁻¹.
Regarding A42G U54C, the kcat in series [1] is 0.0476 ± 0.013 s⁻¹. In addition, the Michaelis-Menten constant (KM) in series [2] came out at 3020 ± 1100 µM. The “self-cleavage kobs at 40 uM GlcN6P” value in series [7] was determined as 0.000795 ± 0.00016 s⁻¹. The “self-cleavage kobs at 160 uM GlcN6P” value in series [3] came out at 0.00208 ± 0.001 s⁻¹. In addition, in series [4], the “self-cleavage kobs at 640 uM GlcN6P” value came to 0.0066 ± 0.0019 s⁻¹. Further, the “self-cleavage kobs at 10000 uM GlcN6P” value in series [6] stood at 0.0394 ± 0.008 s⁻¹.
For the variant C10A G38C, the catalytic constant (kcat) in series [1] was less than 1e-05 s⁻¹. Further, the “self-cleavage kobs at 160 uM GlcN6P” value in series [3] is less than 1e-05 s⁻¹. Further, the “self-cleavage kobs at 640 uM GlcN6P” value in series [4] is less than 1e-05 s⁻¹.
Take G37C C50U: the kcat in series [1] is less than 1e-05 s⁻¹. In series [6], the “self-cleavage kobs at 10000 uM GlcN6P” value is less than 1e-05 s⁻¹.
Turning to A14G U45A, in series [1], the kcat is 0.077 ± 0.015 s⁻¹. Also, the KM in series [2] came to 1340 ± 310 µM. For the same variant, the “self-cleavage kobs at 40 uM GlcN6P” value in series [7] stood at 0.00233 ± 0.00047 s⁻¹. Also, in series [3], the “self-cleavage kobs at 160 uM GlcN6P” value is 0.00764 ± 0.0014 s⁻¹. In series [4], the “self-cleavage kobs at 640 uM GlcN6P” value was determined as 0.0331 ± 0.0099 s⁻¹. Besides, in series [5], the “self-cleavage kobs at 2500 uM GlcN6P” value came to 0.0452 ± 0.016 s⁻¹. In addition, the “self-cleavage kobs at 10000 uM GlcN6P” value in series [6] came out at 0.0701 ± 0.026 s⁻¹.
Regarding A12C G13C, the catalytic constant (kcat) in series [1] turned out to be 6.35e-05 ± 2.1e-06 s⁻¹. Also, in series [2], the KM amounted to 1030 ± 240 µM. For the same variant, the “self-cleavage kobs at 2500 uM GlcN6P” value in series [5] amounted to 4.89e-05 ± 2.3e-05 s⁻¹. In addition, the “self-cleavage kobs at 10000 uM GlcN6P” value in series [6] was 5.73e-05 ± 7.8e-06 s⁻¹.
On to U54G U55C, for which the kcat in series [1] was 0.00147 ± 0.0003 s⁻¹. For the same variant, the KM in series [2] is 670 ± 280 µM. Further, the “self-cleavage kobs at 160 uM GlcN6P” value in series [3] came out at 0.00036 ± 8.1e-05 s⁻¹. In series [4], the “self-cleavage kobs at 640 uM GlcN6P” value stood at 0.000646 ± 9.5e-05 s⁻¹. Also, the “self-cleavage kobs at 2500 uM GlcN6P” value in series [5] is 0.0012 ± 0.00027 s⁻¹. Also, the “self-cleavage kobs at 10000 uM GlcN6P” value in series [6] was found to be 0.00156 ± 0.00037 s⁻¹.
In the case of U31A A48U, the kcat in series [1] is 9.44e-05 ± 4.1e-05 s⁻¹. Further, in series [4], the “self-cleavage kobs at 640 uM GlcN6P” value stood at 4.25e-05 ± 1.5e-05 s⁻¹. Besides, the “self-cleavage kobs at 2500 uM GlcN6P” value in series [5] was 5.43e-05 ± 1.6e-05 s⁻¹. For the same variant, the “self-cleavage kobs at 10000 uM GlcN6P” value in series [6] was determined as 0.000133 ± 4.7e-05 s⁻¹.
On to C11U A12U G32A, for which the kcat in series [1] stood at 0.000169 ± 4.7e-05 s⁻¹. For the same variant, the “self-cleavage kobs at 2500 uM GlcN6P” value in series [5] was determined as 0.000124 ± 3.5e-05 s⁻¹. Besides, the “self-cleavage kobs at 10000 uM GlcN6P” value in series [6] came out at 0.00013 ± 2.5e-05 s⁻¹.
Turning to U31C G59A, the kcat in series [1] is 1.58e-05 ± 4.5e-06 s⁻¹.
As for C10U U54C, the turnover number (kcat) in series [1] was determined as 2.54e-05 ± 7.7e-06 s⁻¹. The “self-cleavage kobs at 40 uM GlcN6P” value in series [7] is less than 1e-05 s⁻¹. In series [5], the “self-cleavage kobs at 2500 uM GlcN6P” value worked out at 3.09e-05 ± 1.2e-05 s⁻¹.
In the case of A33U G38C, the catalytic constant (kcat) in series [1] is less than 1e-05 s⁻¹. Also, the “self-cleavage kobs at 10000 uM GlcN6P” value in series [6] is less than 1e-05 s⁻¹.
A14G A33G G37U: the catalytic constant (kcat) in series [1] is less than 1e-05 s⁻¹. Moreover, in series [7], the “self-cleavage kobs at 40 uM GlcN6P” value was less than 1e-05 s⁻¹. For the same variant, in series [3], the “self-cleavage kobs at 160 uM GlcN6P” value was less than 1e-05 s⁻¹.
